The values below come from article PMC11745445 (2024).

First the molecules themselves.
B1: LV-MKK3-His-WT (His-labeled wild-type MKK3) in HT-22 cells [not stated] / RAGE (receptor for advanced glycation end products), endogenous in HT-22 cells [mouse (endogenous in HT-22)] (parent complex)
chain 1: MESPAASPPASLPQTKGKSKRKKDLRISCVSKPPVSNPTPPRNLDSRTFITIGDRNFEVEADDLVTISELGRGAYGVVEKVRHAQSGTIMAVKRIRATVNTQEQKRLLMDLDINMRTVDCFYTVTFYGALFREGDVWICMELMDTSLDKFYRKVLEKNMKIPEDILGEIAVSIVRALEHLHSKLSVIHRDVKPSNVLINKEGHVKMCDFGISGYLVDSVAKTMDAGCKPYMAPERINPELNQKGYNVKSDVWSLGITMIEMAILRFPYESWGTPFQQLKQVVEEPSPQLPADQFSPEFVDFTSQCLRKNPAERMSYLELMEHPFFTLHKTKKTDIAAFVKEILGEDS
chain 2: GQNITARIGEPLVLSCKGAPKKPPQQLEWKLNTGRTEAWKVLSPQGGPWDSVARILPNGSLLLPATGIVDEGTFRCRATNRRGKEVKSNYRVRVYQIPGKPEIVDPASELTASVPNKVGTCVSEGSYPAGTLSWHLDGKLLIPDGKETLVKEETRRHPETGLFTLRSELTVIPTQGGTHPTFSCSFSLGLPRRRPLNTAPIQLRVREPGPPEGIQLLVEPEGGIVAPGGTVTLTCAISAQPPPQVHWIKDGAPLPLAPSPVLLLPEVGHEDEGTYSCVATHPSHGPQESPPVSIRVTETGDEGPAEGSVGESGLGTLALALGILGGLGVVALLVGAILWRKRQPRREERKAPESQEDEEERAELNQSEEAEMPENGAGGP

Variants of B1 are the subject of the first assay. In words: co-IP (IP: RAGE, IB: MKK3-His) followed by western blotting, optical density; hippocampus of MKK3-knockdown db/db mice; n = 4 in each group; parent: 3.1; read off a plot. A general note: A western blot detects proteins with antibodies after separation by electrophoresis.
Take chain 1 K329A: the response was ~1.4 fold change relative to the db/db + MKK3-shRNA group.

Variants of B1 are the subject of the next assay. In words: co-IP (IP: MKK3-His, IB: RAGE) followed by western blotting, optical density; hippocampus of MKK3-knockdown db/db mice; n = 4 in each group; parent: 1.7; read off a plot.
Consider chain 1 K329A, for which the response was ~1.1 fold change relative to the db/db + MKK3-shRNA group.

In the next assay the parent is B1. In words: co-IP (IP: MKK3-His, IB: RAGE) followed by western blotting, optical density; MKK3-knockdown HT-22 cells, high-glucose stimulation 24 hours; n = 4 in each group; parent: 4; read off a plot.
For the variant chain 1 K329A, the response is ~1.4 fold change relative to the HG + MKK3-shRNA group.

Variants of B1 are the subject of a further assay. The assay can be described thus: co-IP (IP: RAGE, IB: MKK3-His) followed by western blotting, optical density; MKK3-knockdown HT-22 cells, high-glucose stimulation 24 hours; n = 4 in each group; parent: 3.4; read off a plot.
For chain 1 K329A, the response was ~1.1 fold change relative to the HG + MKK3-shRNA group.
